Paper PMC6773797, “Identification and molecular characterization of a psychrophilic GH1 β-glucosidase from the subtropical soil microorganism Exiguobacterium sp. GXG2” (AMB Express, 2019)

Substrate: O=[N+]([O-])c1ccc(O[C@@H]2O[C@H](CO)[C@@H](O)[C@H](O)[C@H]2O)cc1
Assay: purified protein
Assay type: biochemical, Exiguobacterium sp. GXG2
Settings: pH 7.0, 35 °C, 1–10 mM substrate

B1: BglG (Exiguobacterium sp. GXG2) (protein)
chain: MKMPKDFLFGAASASYQVEGAWNVDGKGVSNWDVFSKIPGKTFEATNGDVAIDHYHRYKEDIGLMAEMGLESYRFSISWPRIFPNGTGEVNEKGLEFYNNVIDECLKHGIVPFVTLYHWDLPQVLEEQGGWRSPETADAFVRFAKTCFEAFGDRVRNWITFNETVIFCSLGYLTGAHPPGITGDAKAYFQTTHNVFVAHARAVEAFKEAGYEGEIGITHVFNPAFSIDEAPENKQAEVHANEYATHWFYDPILKGEYPAYVVKDLEKQGLLPEWTEEELDLLKRTAPLNDFIGLNYYCPQRVMKNDSALVMAGGRENSTGRPGNPSFDGVYKTVLMDDKVYTKWGWEIAPDAFLEGMRMLQARYGDIKIYITENGLGDEDPIVGEEIMDTPRIEYIESHLRAVKRAVEEGINVSGYYAWSVIDLLSWLNGYKKQYGFIYVDHANGLARKKKQSFHWYQEIIATRAAEL
notes: six-histidine tag kept, about 58 kDa on SDS-PAGE; pETBlue-2, E. coli Tuner(DE3)pLacI; Ni-NTA purified
Km: 1100 µM | kcat: 12.7 s⁻¹
